Drawing on article PMC5844992, this text covers CFP^A/B ratio for one substance.

Assay [1] has as its target HIV-1 NL4-3 wild-type protease (PR) tagged with CFP or YFP (HIV-1 (NL4-3)). The experiment in a line: FRET or BRET; as a1, cells cultured with 10 nM DRV added with the transfection. A general note: BRET reads energy transfer from a luciferase to a nearby fluorophore.
The target is the same in assay [2]. The experiment in a line: FRET or BRET; FRET-based HIV-1 expression assay; COS-7 cells cotransfected with CFP- and YFP-tagged protease clones, 72 h, no DRV; acceptor photobleaching, CFP^A/B ratio > 1 means dimerization; confocal microscope, room temperature.

Take “HIV-1 NL4-3 wild-type protease (PR) tagged with CFP or YFP (enzyme)”: the CFP^A/B ratio stood at 1.04 in assay [1] and 1.07 in assay [2].
